The data set is described as follows: soluble fraction after stress (log2 fold change); higher = more stays soluble; pooled small domains, quantitative proteomics. The conditions noted are these: stress: 50 degC. Summed up:
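Each library was heated to 50°C as a stress step. The libraries, made up of small protein domains, were pooled and analysed at high throughput by quantitative proteomics. The reported value is the base-two logarithm of the fold change in each protein's soluble amount after stress, taken as a measure of aggregation propensity. The higher the value, the more protein stays in solution.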

As to “HMRDITAQSNASELYFEERDLEAFIEKLERLYPEIRYVNRLMIHSWGQQVVRFFDPDGNLIEVGTP”, the “soluble fraction (log2)” value was -0.145. For the sequence “HMYNNDEIEKIQTMYNAIYQLNDIEKALIMLFLEDKSYKEIAEIMGISEGNARIKMMRTKDKLKNLISKN”, the “soluble fraction (log2)” value is -0.369. The figure for “HMSFVAYEEEKAIGMVRLIGDGGMSFYIKDFAVLPGHQGKGVGQMLLMELQQYLLEHKPADWAVSLE” is -0.329. Take “HMQHYQFEVDEASSKKRLDVFLSENLPEISRSRLKKLIDEKRVTVNEMSRPAGYKVRVKEKIEFHIPPL”: the “soluble fraction (log2)” value was -0.402.

In the case of “HMYTLGEESDGTVRLLELYDIIKNKNEKIFVVDELDRSLHPNLTFNFVKKYLSIENKSQLIVSTH”, the “soluble fraction (log2)” value was -0.0206.

Regarding “HMLFGKKYLGKVPNDASGRISLWNDIVKHHQELQNIRAIENFTSDNVTVAQGDTKKAVVVTDYVT”, the “soluble fraction (log2)” value is -0.0557.

Take “HMDATGDPIADRILQALQLGELTRTQVNNVFQRHLAAARISQALNFLRSLKRADMRMEETAGRSGEVWFAI”: the “soluble fraction (log2)” value is -0.341. In the case of “HMHLLGASIAAYRKKAGMTQEDLGRALFVSGQAVSRWERGGTPDSDMLPKIADVLGISLDTLFGRS”, the “soluble fraction (log2)” value is -0.559.

Turning to “HMNDVHELPYSSFIEMVERGHVISVTVKHINIEFESTKNENYRTIAPQAMTPPYLELLLKNKDSVKVTFLP”, the “soluble fraction (log2)” value is -1.69.

“HMLTYPEHVRLRMIELRKTRSLSQSEFGTYLGLSYQTISSLELGRHEWSLAHIQTALLRFELPPNYF”: the “soluble fraction (log2)” value is -4.92. The figure for “HMEPDTVVVPNFVGKVYASEIEGNEAYSDFTFVIKEGNDPEQDIGVVLKQTPNEGLEVKKGKEITLTINQ” is -0.0593. Under “HMDLPRQSQYQALVVSYARRAGIDEAEEDLLAAFEVWRMRHNHDLAGGRTARDFILAYLPQYQRHKE” stands -1.63. Regarding “HMERRDEINSVVSRYVSAITEGKYDLAEVDETGKLRVQTEGREVLPEALSRGTLEQFYFAFRMAVGSI”, the “soluble fraction (log2)” value was -0.118. The figure for “HMTSLAEQAYRHIRDKLSNGAFVPGEQLVNRVLATEIGVSVIPVREAINRLATEGLVKHVPGSGAFVRQ” is 0.0904; for “HMPEIFYRKIHRTDHDQIALDAEMIRLLIAIDEKKSLSQIAAEVQMEPMALKKNLGKLIQLGLVEPIK” it is 0.137. Under “HMRPSGEAVNAAYRLLKGANPSGNEGDLIQRAQEVAAILPKLNRSSAAAFAKDAKANGLTQAETIALWKGS” stands 0.225.

In the case of “HMVLNVMIEEEVHREIIAAISKLPKERRRVVELSMAGFSQEEIAEKMAISVNTVKTIKLRAYRVLRERLKG”, the “soluble fraction (log2)” value is -3.18. Under “HMENKVLVITEEEKGKRLDVYLAAALEVSRSYAQQLIQGEDVVVNDKQVKANYRLSEGDVVQVQLD” stands no less than 0.62; under “HMYYHQIIGLDVVDENGNTLGKIKEILSPGANDVWVVKRKQKNDLLLPVIDDVIKDVDLAAGKVHVELLEG”, -0.0975; under “HMDRNEFVSTLRAALTGAVSPAIVEDNVRYYQNYISQEIASGKSEKEVLDGLGDPRLIARTIIDT”, 0.0674. Under “HMDPTIRRGELIDAASRLFLSKGYAATSVRDILDEVGNRTASPSVFYYYFKSKEEIYQAVLRRHSE” stands -0.847. The figure for “HMQENKVLEGKVLEKKKKKVFVDLSPFGVGVIRGVNYLEAKNELKDIEEGDNIKVRVLEIDNENGFIELAL” is 0.271; for “HMNVDALIGTKGIVVQPIRPFAVGQVKVNGQVWSAVGKTPETDIEQGREVKVHAIEGVKLVVTPT” it is 0.251; for “HMGNHRNMSAEEEAAILAPFKARAEAGELVEISEIAKAYQSAVDHPISRGQIYFVLHRHGWRKV” it is -0.926. As to “HMDVNSRIRQFLKKMKITVQTFESSIGKTNGYIAHTKSPTAGVLAEIAKVYPDLNLDWLITGEGEMLKN”, the “soluble fraction (log2)” value was -0.468. Regarding “HMDGPGDRLLIAIQENSMTQKKFAQLIGMSPNGLNSIIKGKKRLSRVLAIATERLTGVRADWILQNEQPK”, the “soluble fraction (log2)” value was found to be 0.0136. In the case of “HMFDFNNLSSLSDVELSVYRFVVNNPEKVAYMRVRDIAQKTHVANSSVMRFVHKIGFASFPEFKAYLKNIN”, the “soluble fraction (log2)” value was -1.03.

As to “HMSGRPPTYTAEERSAVIAAALSRPADLGLPFASWTLDRLVAYLGEKGIGMKRSRMSEVLLAEGLKW”, the “soluble fraction (log2)” value was -1.25. Under “HMRNISLSLRWHSGEWTADRLKSEVLALPGAMDMTVFEPQSQAYLRVEQGFDTKLLPAGIDVH” stands -0.927; under “HMSVTYRLLITSSPGQAEVFLDGKRVGITPFSARLAAGWYQVRVSKEGYNLWEQHVQLREDQRLTATLT”, -0.471. Under “HMNTTTTKVVSVSSLNMRSGPSTSYNIIEVLTKDTQVEVISVEDGWAKIKYNSKTGYVSNQYLSDKK” stands 0.0146; under “HMVSSEGLASGIERMLVEFGLETDKGRRFAMWSLLYMLGSAPDLDVAFKDPRDREAARTFMDLLDQANA”, -0.69.

Turning to “HMLTKSVLGNQIKVLRLEKGLSQEEFGAPVDLSRSAVSQIESGQMYPSLESIGKIVKYYSTSWDNLVG”, the “soluble fraction (log2)” value is -0.821. In the case of “HMDPRTSSLTPQERKVLELVGGGLTNRQIAAEMFLAEKTVKNYVSSLLAKLGFERRTQAAVFIASPAF”, the “soluble fraction (log2)” value is -0.541. “HMIHMNMGQKINQLRLQKGFTLEELGNLVGVGKSTVRKWENGMIANMKRDKILLVAEALDTSPAYLMGWD”: the “soluble fraction (log2)” value was -1.54. For “HMPEQLLNTRIPLEFAGRRFDASLAELFPDYSRSRLAAWIKDGAARLDGETVAPRHTVRGGEQVEILVRM”, the “soluble fraction (log2)” value is -0.238. Under “HMAPMYGEFENVRLTDAQLDKLNARFPPEQVQREIEALSGYMRSKGKRYADHYATLLNWLRRDFPP” stands -0.202; under “HMDGRIRFRHAALHDPDVAARLHDYLTTSLPGVRSARVNSQTGSLLLEYDPEVLDRSTLLDLAARAESLL”, -0.219; under “HMDGLTEQQADDILAFISIKGTNAEVLAALENYAGRNETFDTGLSELKVVASNLAAFGMPEENFVVDL”, 0.0102. Under “HMSSVHTMEVKSTTQIKVLDENKNLSSYYSMKNPVSFNYRLFFLNQDELKKLQEDLKTNNDIQSIDIKYA” stands -0.753; under “HMQLEPLVTSVIPVNFAKASDISGTIKGKEVGLLSERGNITAENRTNVLIVKDIRKSVDEINAMVKRLD”, -0.0183; under “HMAIGERIRFLRTLRRMTQKELGLAAGFPEKNASIRMAQYENGTRTPKAELTAVLAEILKVSPQALTV”, -1.2. Under “HMWNLPDPVVRPEGNVTVYENFKNTVEVLNREADLVLKFLQNEFGTSANIDDTGRARLTGSFSTDRVSSVI” stands -0.214; under “HMDETYRRQLEDLAREHGAEYLHGILREVDPASAEAIHANNIKRVIRALEFYHLSGKKISEHNETERQ”, 0.158. Consider “HMNQIFAPMPGLVLEVKLSEGDVVAEGESAIILEAMKMENIIKSPINGIVKKVHVKKGQTIEKNTLIISFK”, for which the “soluble fraction (log2)” value is -1.15. Under “HMSDMIGQNIRRLRTEKQMTQKALADKLFVTAQAVSRWENGEVEPSLSTVTEIARIFNVSADEILGI” stands -0.0125. Consider “HMTNVNSLIGKKAIVIQDIDNLKSTGQVKIGGEIWSAQSESNDIISKDTEVEIVKIDGVKLIVRLVPV”, for which the “soluble fraction (log2)” value is 0.1. The figure for “HMTLGEHILQYRTARGWSQEDLANALEVSRQSVSKWETDASTPELDKIVRLSEIFQVSIDELVTGKA” is 0.108; for “HMSAEVSEIEIQRIISYYRNQNGVPDKYNEIFDRIAAQYTDEQLKVISNFLPSDVKQYLSFNNEKYKSLG” it is -0.295.

“HMSAQQTFLRDAMRRLNMTRDSFAERIGVRRRALDTWLLPEDSSEYRTMPSIVEKFVGEILGREA”: the “soluble fraction (log2)” value was -0.453. “HMLSKEFRFFTYLLESYAQHKNTTAGAVLKTLDEKGLTDFVYKMYDLYHVEAIENAYMDLDSLIATGKPA”: the “soluble fraction (log2)” value was -2.98. The figure for “HMDSLQDFAYEEIKKRIQNGEYAPGTKLNTQEISDSLGISRSPVLAAINRLIALGLVEATPRKGTTVA” is 0.0527; for “HMKTRTVVLKSAGGNKIAVIKIIKEITGLGLVEAKAVADNGGNIKENIPAEEAEAIKTQLTEAGAEVEL” it is -0.192.

Take “HMERLKRVTLSLNQSNYSVTEIARRLQAITGIKDITVVEDEQAVYLKVDPATFDLTLAQQAV”: the “soluble fraction (log2)” value was -0.218.

For “HMLEDIDNSIKKEIILEHYDKMLEFHGDYGAIIFRKLLHAYSKGYTGANEFRDLVNQISDKNIMRDLIESF”, the “soluble fraction (log2)” value was -1.19. For the sequence “HMDIGKNIQTIRYANKLTQDQVIAKLNLMGISMSKSTYAKLETNRMNIKVSELVALAKIFHTDINAF”, the “soluble fraction (log2)” value was -2.43.

As for “HMGKAYMVPDVKNKSVNQAQLLLADKHMNGVVVDSSYVKELPAGIVLDQTPVGGMKVKEGRTVYLTINSD”, the “soluble fraction (log2)” value is -0.0262. Turning to “HMGALARLLASVEQELGVTRDRMTRTQKQEAVTLLNEWGAFTLRKSVEDVAEALGVSRFTVYNYLERAEA”, the “soluble fraction (log2)” value is -2.74.

For the sequence “HMGFVATRSRKFLPFSEARAITRGLGFSNQKDYKEWIKGNGNELLLPFNPWRTYGDSGWKGWKDFLGTDKA”, the “soluble fraction (log2)” value is -1.03. Under “HMEYSTLEIYSQTKKDLIEKSPHLNKVVYDKDDGYIYLLSFEKEDDLTSFKSNIENDSDIKRIEANV” stands 0.0917.

Take “HMDPNAITSAQVTKLQVLANEKGFAERQARLTMWAEVIGRNVGTANELTKAEAHKLIEHMDALPV”: the “soluble fraction (log2)” value was -0.488.

In the case of “HMTGKLGKIILQPKQTVYGITKKYQISESELRRLNPQLDSHLKIGDEVILPAENIKKFGGNQPVAVS”, the “soluble fraction (log2)” value was determined as 0.311. The figure for “HMSSEDTQSRDRARKELSNEMSRIMKRYGLDYQPRDNADDIMNRLKAAGADENTLAYVQEKLK” is 0.134; for “HMTNEWRKILSNLNGKYQIVMELFYVDGFSTKEIARMLHITEVNVRSRMVRGRKQLEQILTVR” it is -0.15; for “HMGNYEEAILAFEAAIKIDPKNADAYRKLAEAYEKTGDEDAALRTLETGAEATGDRELADLAEKKRQELDA” it is 0.169. In the case of “HMESIEGMYKISLLRKQGNAYVIFEDENKEAVEHIFPEKPTALELGTKVIEMFEYKERYDGLI”, the “soluble fraction (log2)” value was -0.366. Under “HMKLNKRQYAYQVIRSRILDGTYVPGQRIIIDQIAKEVNSSHIPVREAIHQLESEQLIDYEPNIGAIVKG” stands 0.285; under “HMDTPMYMAIIEEVRFQIANEILKEGEQLPSIRNLAKTLKVSVITVKRAYKELEEAGYITTIPAKGSKVS”, -1.43.

Values taken from the domain aggregation screens of Martell et al. (2025).
